{"source": "patent US20080293631", "target": "T1, endothelial protein C receptor (UniProt Q9UNN8)", "T1 sequence": "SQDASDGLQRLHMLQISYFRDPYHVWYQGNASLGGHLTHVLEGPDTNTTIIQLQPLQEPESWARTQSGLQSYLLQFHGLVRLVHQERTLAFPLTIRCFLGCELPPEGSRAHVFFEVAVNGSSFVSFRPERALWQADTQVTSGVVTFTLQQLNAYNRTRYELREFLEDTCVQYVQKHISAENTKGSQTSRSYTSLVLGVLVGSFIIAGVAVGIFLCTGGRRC", "data": [{"substance": "Activated protein C", "values": [{"measurement": "LPS-induced NF-κB activity (western blot for the active form of NF-κB in lysates of RA monocytes)", "value": "APC's inhibitory effect on LPS-induced NF-κB activity was almost totally reversed by RCR252, whereas RCR92 had only limited effect"}]}]}
